Assay in all cases: single-filament TIRF microscopy of microtubule growth
Test [1] addresses recombinant α/βIII-tail-IIB tubulin heterodimer (human) (UniProt P68363).
For test [2], the target named is recombinant α/βIIB-tail-III tubulin heterodimer (human) (UniProt P68363).
In test [3] the target is recombinant α/βIIB tubulin heterodimer (human) (UniProt P68363).

For “recombinant α/βIII-tail-IIB tubulin heterodimer (from UniProt P68363-1 1-451; Q13509 1-427; Q9BVA1 428-445) (complex)”, in test [1], the koff – broadly, the first-order rate constant of dissociation – is 2.4 s⁻¹ and the on-rate constant (kon) (as a rule, a measure of how fast the partners come together) stood at 1.8e+06 M⁻¹ s⁻¹.
In the case of “recombinant α/βIIB-tail-III tubulin heterodimer (from UniProt P68363-1 1-451; Q9BVA1 1-427; Q13509 428-450) (complex)”, in test [2], the koff was found to be 5.5 s⁻¹ and the kon worked out at 2e+06 M⁻¹ s⁻¹.
For the substance “recombinant α/βIIB tubulin heterodimer (from UniProt P68363-1 1-451; Q9BVA1 1-445) (complex)”, in test [3], the off-rate (koff) stood at 2.6 s⁻¹ and the kon came to 1.9e+06 M⁻¹ s⁻¹.

The values are drawn from publication PMC4878094.
